Measurements from patent publication US9382304B2, “Engineered polypeptides having enhanced duration of action with reduced immunogenicity” (priority 2011, dated 2016).
Like-named read-outs stand apart in the source and are kept apart here.

Experiments:
NIH/Swiss mice = assay: OGTT DOA (oral glucose tolerance test duration of action); format: in vivo, mouse; conditions: dosed 24 hours before OGTT, even at higher doses
Source text: Water and a standard pelleted mouse chow diet were available ad libitum, except as noted. […] Significant treatment effects were identified by ANOVA (p<0.05).

[1] = tested on: IgG molecules present in normal human sera; assay: Serum response analysis by ELISA (IgG binding to albumin binding polypeptides); conditions: 126 sera positive for one or more albumin binding polypeptides; sera diluted 50 times
Procedure: The percentage of human serum containing IgG, capable of binding to a set of albumin binding polypeptides as disclosed herein was analyzed by ELISA.
The plates were coated over night […] at 4° C. On the day of analysis, the plates were washed twice with tap water and blocked for 2 hours with 100 μl of phosphate buffered saline (PBS) containing 0.05% casein (PBSC). […] After incubation for two hours at room temperature (RT), the plates were washed in PBSC four times using an automated ELISA washer. […] 50 μl of the diluted sera was added per well according to the pre-made plate layout. Each serum sample was tested as a singlet. Positive and negative controls were included on each plate and for each albumin binding polypeptide. […] The plates were incubated for one hour at RT and subsequently washed four times in PBSC using an automated ELISA washer.

[2] = rabbit, in vivo; cited from earlier work
[3] = human, in vivo; cited from earlier work
[4] = mouse, in vivo; cited from earlier work
[5] = rat, in vivo; cited from earlier work
GLP-1 receptor = target: T1, GLP-1 receptor (Rattus norvegicus, UniProt P32301); assay: GLP-1 receptor functional assay (cAMP induction, HTRF) in rat thyroid carcinoma 6-23 (clone 6) cells; format: cell-based
T1 construct: functional activity was determined using cells that endogenously express GLP-1R; endogenous in cells; host or cells: rat thyroid carcinoma 6-23 (clone 6) cells (ATCC CRL-1607)
T1 sequence (P32301 22-463): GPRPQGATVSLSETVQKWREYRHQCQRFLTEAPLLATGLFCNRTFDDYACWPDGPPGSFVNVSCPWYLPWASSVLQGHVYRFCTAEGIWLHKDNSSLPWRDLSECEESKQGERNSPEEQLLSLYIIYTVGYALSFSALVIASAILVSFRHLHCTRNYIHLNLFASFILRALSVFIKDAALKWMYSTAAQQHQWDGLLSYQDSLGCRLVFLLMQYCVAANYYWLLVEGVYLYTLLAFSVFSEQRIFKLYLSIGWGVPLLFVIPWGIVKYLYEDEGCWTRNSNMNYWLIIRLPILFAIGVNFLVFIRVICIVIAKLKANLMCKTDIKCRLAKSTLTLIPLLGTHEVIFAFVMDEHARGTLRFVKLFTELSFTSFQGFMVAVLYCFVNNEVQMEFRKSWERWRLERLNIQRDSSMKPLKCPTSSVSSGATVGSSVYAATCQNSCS
Procedure: In another embodiment the cell-based assay is a homogeneous time-resolved fluorescence assay (HTRF®). HTRF® kits are commercially available from Cisbio International (Bedford, Mass.). […] See worldwideweb.htrf.com/products/gper/camp/, the disclosure of which is incorporated by reference herein. […] The HTRF® standards and calibrations are prepared following the instructions in the kit. Assays may be performed with or without the presence of albumin.
See for example United States Patent Application Publication US20110097751A1, incorporated by reference for the assay method. In this example, functional activity was determined using cells that endogenously express GLP-1R, and cAMP induction is detected as a measure of exendin activity.
The data above was determined in the presence of about 0.1% bovine serum albumin (BSA).

With “GSLAEAKEAANAELDSYGVSDFYKRLIDKAKTVEGVEALKDAILAALP [PEP07986]” the “activity in OGTT DOA when dosed at t-24 hours” value (NIH/Swiss mice) was “inactive”.

For `CC[C@H](C)[C@H](NC(=O)[C@H](C)NC(=O)[C@H](CC(=O)O)NC(=O)[C@H](CCCCN)NC(=O)[C@H](CC(C)C)NC(=O)[C@H](C)NC(=O)[C@H](CCC(=O)O)NC(=O)[C@@H](NC(=O)CNC(=O)[C@H](CCC(=O)O)NC(=O)[C@@H](NC(=O)[C@@H](NC(=O)[C@H](CCCCN)NC(=O)[C@H](C)NC(=O)[C@H](CCCCN)NC(=O)[C@H](CC(=O)O)NC(=O)[C@@H](NC(=O)[C@H](CC(C)C)NC(=O)[C@H](CCCNC(=N)N)NC(=O)[C@H](CCCCN)NC(=O)[C@H](Cc1ccc(O)cc1)NC(=O)[C@H](Cc1ccccc1)NC(=O)[C@H](CC(=O)O)NC(=O)[C@H](CO)NC(=O)[C@@H](NC(=O)CNC(=O)[C@H](Cc1ccc(O)cc1)NC(=O)[C@H](CSC1CC(=O)N(CCNC(=O)CN2CCN(CC(=O)O)CCN(CC(=O)O)CCN(CC(=O)O)CC2)C1=O)NC(=O)[C@H](CC(=O)O)NC(=O)[C@H](CC(C)C)NC(=O)[C@H](CCC(=O)O)NC(=O)[C@H](C)NC(=O)[C@H](CC(N)=O)NC(=O)[C@H](C)NC(=O)[C@H](C)NC(=O)[C@H](CCC(=O)O)NC(=O)[C@H](CCCCN)NC(=O)[C@H](C)NC(=O)[C@H](CO)NC(=O)[C@H](C)NC(=O)[C@H](CC(C)C)NC(=O)CN)C(C)C)[C@@H](C)CC)[C@@H](C)O)C(C)C)C(C)C)C(=O)N[C@@H](CC(C)C)C(=O)N[C@@H](C)C(=O)N[C@@H](C)C(=O)N[C@@H](CC(C)C)C(=O)N1CCC[C@H]1C(=O)O` (some centres unmarked) [PEP07968], the “IgG binding reactivity (average OD-value, percentage of serum with IgG binding)” value [1] was “least reactivity”, the immunogenicity definition (CD3+ CD4+ T cells) was “non-immunogenic” and the “number of donors in which CD3+ CD4+ T cells proliferation was induced, compared to the albumin control” value (CD3+ CD4+ T cells) was 1 donors.

In the case of “rabbit serum albumin: rabbit serum albumin”, the half-life [2] is listed as “about 5 days”.

In the case of albumin, the half-life [3] is listed as 456 h, the half-life [2] is listed as 134 h and the half-life [4] is listed as 24 h. The half-life [5] was 45.6 h.

B1: HGEGTFTSDLSKQLEEEAVRLFIEWLKNTGGGGSASGSLAEAKEAANAELDSYGVSDFYKRLIDKAKTVEGVEALKDAILAALP (protein)
chain: HGEGTFTSDLSKQLEEEAVRLFIEWLKNTGGGGSASGSLAEAKEAANAELDSYGVSDFYKRLIDKAKTVEGVEALKDAILAALP
With B1 the “in vitro activity against the GLP-1 receptor” value (GLP-1 receptor) was “active in vitro” and the “activity in OGTT DOA when dosed at t-24 hours” value (NIH/Swiss mice) was “did not display 24 duration”.
